B1: TPR t1 (parent)
chain: GACCAAUCUGCCCUCAGAGCUCGAGAACAUCUUCGGAUGCAGAGGAGGCAGGCUUCGGUGGCGCGAUAGCGCCAACGUCCUCAACCUCCAAUGCAUCCCACCACAUGAUGAUGCCUGAAGAGCCUUGGUUUUUUG

Variants of: B1
Test: polymerase ribozyme fitness, log enrichment relative to wild type (log ratio); higher = more active; in vitro selection for triplet polymerase activity
How it was run: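 A single round of triplicate in vitro selection, including frozen incubation at −7 °C, was applied to PCR-built, transcribed mutant libraries of each subunit of a heterodimeric triplet polymerase ribozyme. Illumina sequencing of input and output libraries retained genotypes with ≥10 input reads and ≥1 read per output. Fitness is the base-2 logarithm of genotype enrichment divided by wild-type enrichment, from inverse-variance-weighted replicate averages.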

Variant	polymerase ribozyme fitness (log ratio)
A2G C13U G69C	-0.807
C12G U55C A90C	-1.45
G117U A118U	-2.66
A84U A121C	2.22
A6G U7C A50U C80G U112G	-4.92
C28G C49G G52A G120A	-4.24
G36C A66C U125G	-2.72
G47A C56U U112A	0.663
A6U G45U C49U C76G	-0.941
C56U U106G U112G A118C U133G	-0.872
G23U G69U	-5.44
C72A A111C	-0.314
G61C G77A	-4.61
G39C C53G C124U G128U	-0.975
G44U G63A	-1.62
C82G	-0.684
A46U U78C	-1.07
U59A G113U	-2.9
U14A C15A C20U U55G	-3.71
C56A C82A C88U	-0.846
C56U U129G	-0.409
C8G A50U G60U C123A G128U U130A	-0.561
G61A C88A	-0.575
A2C G120U	-0.948

Variant	polymerase ribozyme fitness (log ratio)
U30C A37C C73G U96A C115U	-5.56
C12U U21G U38A G61C A103U U112C C115A A118G G127U	-6.24
C98U A111C	-2.13
C12U G93U	-0.871
A16U G69U G77A U116A	-1.32
A37U G113U G120A	-2.83
C4U A74G C89G U112G	-2.61
C11A G122U	0.0729
A50G G77A	-0.057
C49A U55G C70U C86U A95C C101U C123A G135C	-1.71
C20U C80U C82G C85G	-3.74
U9G C97G C104U	-2.99
A6G C99A C123U	-5.05
C98G G135U	-6.54
C13A C82U	-1.59
C73U C114A	-1.19
G69U G122A	0.377
C99A G127A	-5.8
C13A A37C C73U A118U	-1.72
C8U C13A C20A U59A G113A C123G	-1.9
C8G G19U G48A A50U U54G C72U U92A U112A	-4.04
C3G G36U A83U	-3.46
A5U U7A C15U C76A	-1.76
A91U A111G	-1.26

Variant	polymerase ribozyme fitness (log ratio)
A41G U55G A74G	0.0435
A5U C8U C11U G61A G113A C124G	-0.703
A41C C56U C114A A121G	-1.11
C13U G25C U33G C70U U81A U109A	-6.3
C49G A121C	0.434
C72G G113A	-1.71
C12U G45C C104A G117A	-3.2
C11U U59A C73A A91G A118U	-2.19
U21A C89G	-2.25
C49G U55G C89A U92C	-5.1
G35A U59C	-4.9
C11G G35A G117U	-6.34
C40U C64U C85U A100G U106C U112C	-2.44
C12A C22A U59A G61C	-5.61
C12U A37C G45A G63U	-1.7
C15A A37U G57A G61C	-3.97
G77A G110U	-1.1
G42A A46U C53A U87A	-2.21
C124U U129A	-0.35
C20U A75G	-0.924
A6U C62A A111U G122A	-5.22
A18U C56U C64A G69A U112C U129A	-5.64
C11G C22U G61A A66C	-3.92
G60A C82U U131A	-0.161

Variant	polymerase ribozyme fitness (log ratio)
G10C G52U G58C A84U	-2.42
G42C C49A C56U U96A	-3.16
G48U C76U C89G C124U G128U U132C	-2.96
A43U U112G G127U	-2.19
A5G A50C	-0.262
C13A A24G G58C C115A	-3.96
C80A A84C	-3.11
G51U G61U	-3.14
C53G C73A C102A G128C	-4.69
G63A C80U	-1.54
C8A C72U U78A G93C C101A	-1.75
C86A A100C	-1.66
U9A C62G C79G C115U	-4.57
C15A G69U	-1.16
C64U G65A	-4.3
G45U A111U C124U	-3.45
G51U G60U C79G C85A C114U G120U G127U	-4.96
C12A A37U U78A A83G U106C	-3.17
G45U G128U	-2.42
A95G G135U	-0.746
G17C G113A	-6.34
A6U C56A	-0.282
G19U G60A G110U	-6.37
G45C C88U	-0.355

Variant	polymerase ribozyme fitness (log ratio)
A29C C49U	-2.86
G42C U55A G113U G120U C123U U125A	-3.47
C99U A121U	-0.669
U55C A111U A119C	-5.71
C15U G58A C79U	-2.08
U9A G52U C72A C88U C124A	1.2
U14A A37U G52A U59C G71A	-3.95
C20A U96A	-4.02
A43C U59G U78C A111U	-5.7
G57C A83C A111G G122A G127A	-3.51
A50U C115A U133C	0.332
C40A C104U G110U A111U C123G U125G	-6.57
C82U	-0.201
G10A A41U	-0.89
C12A C15U G52U C62A C86U G117C	-5.92
G36U G58C C89A A91C C115U	-4.15
C15A A43U	-3.28
A74G C86U U109A U126G	-5.87
A2G C72U A74U C102U U130A	-3.21
A43G C56A G57U U59C A84C C86U	-3.81
A41C C56U	-0.143
A26G G47A C72U G93C G113A	-6.9
G47A C76G C114G	-3.13
A50C C70U U116G G117A	-4.23

Variant	polymerase ribozyme fitness (log ratio)
G45C G48C G69A	-4.32
A29G C104A G117C U131C	-6
C4A G48C C62A	-3.18
G113A G120C	-1.02
G63A C124U	0.738
A27U C82G C102A C123A	-4.66
C4G C101U	-2.36
G48U G71U U96C	-1.48
C15U G57A G58A U109G G113A	-7.08
G44U A90U G135U	-2.19
C8U A46G U54C C56A	-0.306
C12A A84U G110A C114U	-5.31
C94A G127U	-1.5
G10C C34U A43U C101G G107C	-7.66
A26U G48C C86G	-3.65
C62A G113A	-2.02
C82A G93A A100C C123U U125A	-1
U32A C88U	-3.8
A24C C102U	-6.73
C56U U116A G117C	-1.64
A29U G47C A119G	-2.66
G63A U87G A95U	-1.19
G47U G60U U116C U131A U132C	-1.54
U7G U133A	0.128

Variant	polymerase ribozyme fitness (log ratio)
C40A A108G A119G G122U	-2.47
A6G G47U C64U C99A G120A	-5.98
U54G G57A C72G C114U	-5.48
U54A U55A A74G	-0.235
C11A C49G C64U A121U	0.957
C22G A37U C88U	-4.47
C8U U21A C56U C114A G128A	-2.5
C20A G122A C123G	-0.681
C3G G57A G60A A111C	-2.99
C40U C53A C73A C104U C123G	1.24
G17U C73G	-2.39
G36U C101U U116C	-2.19
A6G C72G C88U C123A	0.738
C12U C34U G61A C104U U132A U133G	-3.5
G93U C97U	-0.996
C8A C11U A121U	2.14
A5C A46C C56A C102U	-3.74
G52U U54G G69C	-4.27
U7A A18G C20A G39A C70U U116C G120U C123U C124A	-6.7
U32C C56U G60A C88A	-5.77
G58A C62U C88U	-0.946
C34U C73A A111U C114G G135A	-6.34
G60A C80A G113C	-6.39
